Values belong to the binder of their own block, whether it stands above or below them. Non-standard residues stand in square brackets, D forms with d. No end group written: not given here. 1Nal = N[C@@H](Cc1cccc2ccccc12)C(=O)O; 2Nal = N[C@@H](Cc1ccc2ccccc2c1)C(=O)O; β3hI = CC[C@H](C)[C@H](N)CC(=O)O; β3hR = N=C(N)NCCC[C@H](N)CC(=O)O; Nle = CCCC[C@H](N)C(=O)O; β3hA = C[C@H](N)CC(=O)O; Aib = CC(C)(N)C(=O)O; βAla = NCCC(=O)O
Columns and labels:
[1] = biological target: human parathyroid hormone receptor 2 (human, UniProt P49190); assay: cell-based or functional assay
[2] = biological target: human parathyroid hormone receptor 1 (human, UniProt Q03431); assay: cell-based or functional assay

hPTHR-2 EC50 (nM), luciferase reporter gene assay [1]: 46 nM
hPTHR-1 EC50 (nM), CRE-luciferase reporter gene assay [2]: 0.22 nM
B1: [Aib^1, Nle^8,18, β-Ala^17, 1-Nal^23] hPTH (1-34)-NH2 (peptide)
peptide: [Aib]VSEIQL[Nle]HNLGKHLN[βAla][Nle]ERVE[1Nal]LRKKLQDVHNF-NH2
modifications: N-terminus assumed
SMILES: CCCC[C@H](NC(=O)CCNC(=O)[C@H](CC(N)=O)NC(=O)[C@H](CC(C)C)NC(=O)[C@H](Cc1c[nH]cn1)NC(=O)[C@H](CCCCN)NC(=O)CNC(=O)[C@H](CC(C)C)NC(=O)[C@H](CC(N)=O)NC(=O)[C@H](Cc1c[nH]cn1)NC(=O)[C@H](CCCC)NC(=O)[C@H](CC(C)C)NC(=O)[C@H](CCC(N)=O)NC(=O)[C@@H](NC(=O)[C@H](CCC(=O)O)NC(=O)[C@H](CO)NC(=O)[C@@H](NC(=O)C(C)(C)N)C(C)C)[C@@H](C)CC)C(=O)N[C@@H](CCC(=O)O)C(=O)N[C@@H](CCCNC(=N)N)C(=O)N[C@H](C(=O)N[C@@H](CCC(=O)O)C(=O)N[C@@H](Cc1cccc2ccccc12)C(=O)N[C@@H](CC(C)C)C(=O)N[C@@H](CCCNC(=N)N)C(=O)N[C@@H](CCCCN)C(=O)N[C@@H](CCCCN)C(=O)N[C@@H](CC(C)C)C(=O)N[C@@H](CCC(N)=O)C(=O)N[C@@H](CC(=O)O)C(=O)N[C@H](C(=O)N[C@@H](Cc1c[nH]cn1)C(=O)N[C@@H](CC(N)=O)C(=O)N[C@@H](Cc1ccccc1)C(N)=O)C(C)C)C(C)C

hPTHR-2 EC50 (nM), luciferase reporter gene assay [1]: 36 nM
hPTHR-1 EC50 (nM), CRE-luciferase reporter gene assay [2]: 0.24 nM
B2: [Nle^8, β-hArg^18, 2-Nal^23] hPTH (1-34)-NH2 (peptide)
peptide: SVSEIQL[Nle]HNLGKHLNS[β3hR]ERVE[2Nal]LRKKLQDVHNF-NH2
modifications: N-terminus assumed
SMILES: CCCC[C@H](NC(=O)[C@H](CC(C)C)NC(=O)[C@H](CCC(N)=O)NC(=O)[C@@H](NC(=O)[C@H](CCC(=O)O)NC(=O)[C@H](CO)NC(=O)[C@@H](NC(=O)[C@@H](N)CO)C(C)C)[C@@H](C)CC)C(=O)N[C@@H](Cc1c[nH]cn1)C(=O)N[C@@H](CC(N)=O)C(=O)N[C@@H](CC(C)C)C(=O)NCC(=O)N[C@@H](CCCCN)C(=O)N[C@@H](Cc1c[nH]cn1)C(=O)N[C@@H](CC(C)C)C(=O)N[C@@H](CC(N)=O)C(=O)N[C@@H](CO)C(=O)N[C@@H](CCCNC(=N)N)CC(=O)N[C@@H](CCC(=O)O)C(=O)N[C@@H](CCCNC(=N)N)C(=O)N[C@H](C(=O)N[C@@H](CCC(=O)O)C(=O)N[C@@H](Cc1ccc2ccccc2c1)C(=O)N[C@@H](CC(C)C)C(=O)N[C@@H](CCCNC(=N)N)C(=O)N[C@@H](CCCCN)C(=O)N[C@@H](CCCCN)C(=O)N[C@@H](CC(C)C)C(=O)N[C@@H](CCC(N)=O)C(=O)N[C@@H](CC(=O)O)C(=O)N[C@H](C(=O)N[C@@H](Cc1c[nH]cn1)C(=O)N[C@@H](CC(N)=O)C(=O)N[C@@H](Cc1ccccc1)C(N)=O)C(C)C)C(C)C

hPTHR-2 EC50 (nM), luciferase reporter gene assay [1]: 42 nM
hPTHR-1 EC50 (nM), CRE-luciferase reporter gene assay [2]: 0.25 nM
B3: [Nle^8, β-hIle^18, 2-Nal^23] hPTH (1-34)-NH2 (peptide)
peptide: SVSEIQL[Nle]HNLGKHLNS[β3hI]ERVE[2Nal]LRKKLQDVHNF-NH2
modifications: N-terminus assumed
SMILES: CCCC[C@H](NC(=O)[C@H](CC(C)C)NC(=O)[C@H](CCC(N)=O)NC(=O)[C@@H](NC(=O)[C@H](CCC(=O)O)NC(=O)[C@H](CO)NC(=O)[C@@H](NC(=O)[C@@H](N)CO)C(C)C)[C@@H](C)CC)C(=O)N[C@@H](Cc1c[nH]cn1)C(=O)N[C@@H](CC(N)=O)C(=O)N[C@@H](CC(C)C)C(=O)NCC(=O)N[C@@H](CCCCN)C(=O)N[C@@H](Cc1c[nH]cn1)C(=O)N[C@@H](CC(C)C)C(=O)N[C@@H](CC(N)=O)C(=O)N[C@@H](CO)C(=O)N[C@H](CC(=O)N[C@@H](CCC(=O)O)C(=O)N[C@@H](CCCNC(=N)N)C(=O)N[C@H](C(=O)N[C@@H](CCC(=O)O)C(=O)N[C@@H](Cc1ccc2ccccc2c1)C(=O)N[C@@H](CC(C)C)C(=O)N[C@@H](CCCNC(=N)N)C(=O)N[C@@H](CCCCN)C(=O)N[C@@H](CCCCN)C(=O)N[C@@H](CC(C)C)C(=O)N[C@@H](CCC(N)=O)C(=O)N[C@@H](CC(=O)O)C(=O)N[C@H](C(=O)N[C@@H](Cc1c[nH]cn1)C(=O)N[C@@H](CC(N)=O)C(=O)N[C@@H](Cc1ccccc1)C(N)=O)C(C)C)C(C)C)[C@@H](C)CC

hPTHR-2 EC50 (nM), luciferase reporter gene assay [1]: 73 nM
hPTHR-1 EC50 (nM), CRE-luciferase reporter gene assay [2]: 0.34 nM
B4: [Nle^8, β-hAla^18, 2-Nal^23] hPTH (1-34)-NH2 (peptide)
peptide: SVSEIQL[Nle]HNLGKHLNS[β3hA]ERVE[2Nal]LRKKLQDVHNF-NH2
modifications: N-terminus assumed
SMILES: CCCC[C@H](NC(=O)[C@H](CC(C)C)NC(=O)[C@H](CCC(N)=O)NC(=O)[C@@H](NC(=O)[C@H](CCC(=O)O)NC(=O)[C@H](CO)NC(=O)[C@@H](NC(=O)[C@@H](N)CO)C(C)C)[C@@H](C)CC)C(=O)N[C@@H](Cc1c[nH]cn1)C(=O)N[C@@H](CC(N)=O)C(=O)N[C@@H](CC(C)C)C(=O)NCC(=O)N[C@@H](CCCCN)C(=O)N[C@@H](Cc1c[nH]cn1)C(=O)N[C@@H](CC(C)C)C(=O)N[C@@H](CC(N)=O)C(=O)N[C@@H](CO)C(=O)N[C@@H](C)CC(=O)N[C@@H](CCC(=O)O)C(=O)N[C@@H](CCCNC(=N)N)C(=O)N[C@H](C(=O)N[C@@H](CCC(=O)O)C(=O)N[C@@H](Cc1ccc2ccccc2c1)C(=O)N[C@@H](CC(C)C)C(=O)N[C@@H](CCCNC(=N)N)C(=O)N[C@@H](CCCCN)C(=O)N[C@@H](CCCCN)C(=O)N[C@@H](CC(C)C)C(=O)N[C@@H](CCC(N)=O)C(=O)N[C@@H](CC(=O)O)C(=O)N[C@H](C(=O)N[C@@H](Cc1c[nH]cn1)C(=O)N[C@@H](CC(N)=O)C(=O)N[C@@H](Cc1ccccc1)C(N)=O)C(C)C)C(C)C

— patent US20110195900A1, “PEPTIDIC PTH RECEPTOR AGONISTS” (FERRING B.V., priority 2008, published 2011)
